According to US20250051449A1 (SURFACE ONCOLOGY, published 2025):
Positions count from the first letter of the chain named.

B1: Antibody 2 (antibody, V domains shown)
VH: EVQLVESGGGLVKPGGSLRLSCAASGFTFSEYTMNWVRQAPGKGLEWVSAIVGSGDSTYYADSVKGRFTISRDNSKNTLYLQMNSLRAEDTAVYYCAKDYSSGDWIDYGMDVWGQGTTVTVSS
VL: DIQMTQSPSSLSASVGDRVTITCQASQDISNYLNWYQQKPGKAPKLLIYDASNLATGVPSRFSGSGSGTDFTFTISSLQPEDIATYYCQQFDLLPPTFGGGTKVEIK
notes: Purified as IgG; compared with an IgG1 isotype control and detected with anti-human IgG Fc; also called antibody clone number 2; clone 2
B2: Antibody 5 (antibody, V domains shown)
VH: B1 VH with V5L, K13Q, E31D, T33A, N35I, V52S, S54G, D56E
VL: B1 VL
notes: Purified as IgG; compared with an IgG1 isotype control and detected with anti-human IgG Fc; also called antibody clone number 5; clone 5
B3: Antibody 10 (antibody, V domains shown)
VH: EVQLVESGGGLVQPGRSLRLSCAASGFTFDDYAVHWVRQAPGKGLEWVSGISWSSGLIGYADSVKGRFTISRDNAKNSLYLQMNSLRAEDTAVYYCAKGPPTYQDYFDLWGRGTLVTVSS
VL: EIVLTQSPATLSLSPGERATLSCRASQSVSRYLAWYQQKPGQAPRLLIYDASNRATGIPARFSGSGSGTDFTLTISSLEPEDFAVYYCQQVSFFPPITFGGGTKVEIK
notes: Purified as IgG; compared with an IgG1 isotype control and detected with anti-human IgG Fc; also called antibody clone number 10; clone 10
B4: Antibody 15 (antibody, V domains shown)
VH: EVQLVESGGGLVQPGRSLRLSCTASGFTFGDVAMSWFRQAPGKGLEWVGYIGSKAYGGETEYTASVKGRFTISRDGSKSIAYLQMNSLKTEDTAVYYCARAGHSYGSIASNWFDPWGQGTLVTVSS
VL: DIQMTQSPSSLSASVGDRVTITCRASQSISSYLNWYQQKPGKAPKLLIYGASSLQSGVPSRFSGSGSGTDFTLTISSLQPEDFATYYCQQGFYTPWTFGGGTKVEIK
notes: Purified as IgG; compared with an IgG1 isotype control and detected with anti-human IgG Fc; also called antibody clone number 15; clone 15
B5: Antibody 38 (antibody, V domains shown)
VH: EVQLLESGGGLVQPGGSLRLSCAASGFTFSGHLMSWVRQAPGKGLEWVSAISGSAGETYYADSVKGRFTISRDNSKNTLYLQMNSLRAEDTAVYYCARDAYYDDWSGWADWYFDLWGRGTLVTVSS
VL: EIVLTQSPATLSLSPGERATLSCRASQSVSRYLAWYQQKPGQAPRLLIYDASNRATGIPARFSGSGSGTDFTLTISSLEPEDFAVYYCQQVSLLPPTFGGGTKVEIK
notes: Purified as IgG; compared with an IgG1 isotype control and detected with anti-human IgG Fc; also called antibody clone number 38; clone 38
B6: Antibody 44 (antibody, V domains shown)
VH: QVQLVQSGAEVKKPGSSVKVSCKASGGTFDNYYISWVRQAPGQGLEWMGGIFPIFGTANYAQKFQGRVTITADESTSTAYMELSSLRSEDTAVYYCAREVGHYSGSPYYMDVWGKGTTVTVSS
VL: DIQMTQSPSTLSASVGDRVTITCRASQSINSWLAWYQQKPGKAPKLLISDASSLESGVPSRFSGSGSGTEFTLTISSLQPDDFATYYCQQVGPYLTFGGGTKVEIK
notes: Purified as IgG; compared with an IgG1 isotype control and detected with anti-human IgG Fc; also called antibody clone number 44; clone 44

Key:
[1] = target: T1, human CD112R expressed on Jurkat cells (human, UniProt Q6DKI7 1-326); assay: flow cytometry, wild type Jurkat cells, 0.63 ug/mL antibody
T1 construct: whole, on cells; Used for both Jurkat-CD112R OE cells and wild type Jurkat cells; which cells is said under assay; also called PVRIG; Jurkat-CD112R OE
T1 sequence (looked up): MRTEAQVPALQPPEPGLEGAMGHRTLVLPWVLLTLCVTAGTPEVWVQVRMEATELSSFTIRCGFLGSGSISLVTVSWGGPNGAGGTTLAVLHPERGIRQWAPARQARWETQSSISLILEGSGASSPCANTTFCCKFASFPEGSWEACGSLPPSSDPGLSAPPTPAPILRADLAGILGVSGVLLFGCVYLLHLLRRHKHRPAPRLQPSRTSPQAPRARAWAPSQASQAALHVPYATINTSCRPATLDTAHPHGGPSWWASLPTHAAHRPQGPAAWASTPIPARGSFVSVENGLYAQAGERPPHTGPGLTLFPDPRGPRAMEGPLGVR
Procedure: (§1) The ability of anti-CD112R antibodies to bind to CD112R expressed on cells was evaluated. 1×10⁵ Jurkat cells (acute T cell leukemia cell line, ATCC #TIB-152) that were either wild type or engineered to over-express human CD112R (Jurkat-CD112R OE) were added to each well of a 96-well V bottom plate and stained with either anti-CD112R antibodies or an IgG1 isotype control (0.63 μg/mL) for 1 hour at 4° C. Cells were washed twice with PBS+2% FCS and resuspended with Alexa Fluor® 647 anti-human IgG Fc antibody (Biolegend, Cat #409320) diluted 1:100 in PBS+2% FCS and incubated at 4° C. for 30 minutes. Cells were subsequently washed twice and resuspended in PBS+2% FCS. Cellular data was acquired using a LSRFortessa X-20 (BD Biosciences) and analyzed with FlowJo software (Tree Star).

[2] = target: T2, CD112R-hIgG4 fusion protein (human, UniProt Q6DKI7 41-171, limits assumed); assay: blocking ELISA: coated CD112R-hIgG4, antibody, then biotinylated CD112 Fc
T2 construct: also called human CD112R-hIgG4; not shown: human IgG4 portion (hIgG4)
T2 sequence (looked up): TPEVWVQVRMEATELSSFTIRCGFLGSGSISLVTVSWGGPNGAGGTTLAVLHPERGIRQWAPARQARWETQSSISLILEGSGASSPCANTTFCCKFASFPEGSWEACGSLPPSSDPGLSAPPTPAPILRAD
Procedure: The ability of anti-CD112R antibodies to block human CD112R was also evaluated by ELISA. Briefly, 96 well Nunc Maxisorp plates were coated with 1 μg/mL of a CD112R-hIgG4 fusion protein in PBS overnight at 4° C. […] After blocking, plates were washed 6× with PBST. Next, 100 μl of anti-CD112R antibodies in PBS+1% BSA was added at a final starting concentration of 10 μg/mL, with 4-fold serial dilutions. Plates were incubated at room temperature for 1.5 hours. Next plates were washed 6× with PBST and then incubated with 1 μg/ml CD112 Fc protein (R&D Systems, Cat #9317-N2-050) that was biotinylated with a sulfo-NHS biotinylation kit (Thermo Fisher, Cat #21925) in 100 μl of PBS+1% BSA for 1 hour at room temperature. Plates were then washed 6× with PBST and subsequently incubated with streptavidin-HRP (Biolegend, Cat #405210) diluted in PBS+1% BSA according to the manufacturer recommendation for 1 hour at room temperature. Following this incubation, plates were then washed 6× with PBST and developed with TMB substrate (Life Technologies, Cat #002023). The reaction was stopped with an equal volume of stop solution (Life Technologies, Cat #SS04). Absorbance at 450 nm (O.D. 450) was measured on a SpectraMax plate reader.
Results are depicted in FIG. 2B and Table 2. […] Percent inhibition was calculated as [100−((test sample O.D. 450/Max 0.D. 450)*100%)] Max O.D. 450 was defined as absorbance at 450 nm in the absence of antibody.

[3] = target: T1, human CD112R expressed on Jurkat cells; assay: flow cytometry, Jurkat cells over-expressing human CD112R, 0.63 ug/mL antibody
Procedure: as §1
Results are depicted in FIG. 1. Quantitation of antibody binding to Jurkat-CD112R OE cells was assessed by the geometric mean fluorescent intensity (gMFI) of the Alexa Fluor® 647 signal.

[4] = target: T1, human CD112R expressed on Jurkat cells; assay: flow cytometry competition on Jurkat-CD112R OE cells; competitor biotinylated his-tagged human CD112
Procedure: The ability of anti-CD112R antibodies to block CD112 binding to CD112R expressing cells was evaluated. 1×10⁵ Jurkat cells (acute T cell leukemia cell line, ATCC #TIB-152) that were engineered to over-express human CD112R (Jurkat-CD112R OE) were added to each well of a 96-well V bottom plate and stained with serial dilutions of either anti-CD112R antibodies or an IgG1 isotype control (highest concentration, 10 μg/mL) for 1 hour at 4° C. Cells were washed twice with PBS+2% FCS and resuspended with biotinylated his-tagged human CD112 (3 μg/mL) (BPS Bioscience, #71234) and PE Streptavidin (5 μg/mL) (Biolegend, #405204) in PBS+2% FCS and incubated at 2 hours at 4° C. Cells were subsequently washed twice and resuspended in PBS+2% FCS. Cellular data was acquired using a LSRFortessa X-20 (BD Biosciences) and analyzed with FlowJo software (Tree Star).
Results are depicted in FIG. 2A and Table 2. […] Percent inhibition was calculated as [100−((test sample MFI/Max MFI)*100%)]

| Binder | gMFI (fold increase over isotype) [1] | CD112 blocking max inhibition ELISA (%) [2] [%] | gMFI (fold increase over isotype) [3] | CD112 blocking max inhibition (%) [4] [%] | IC50 [4] [ng/mL] |
| --- | --- | --- | --- | --- | --- |
| B1 | 4.7 fold increase over isotype | 97 | 63.9 fold increase over isotype | 94.1 | 0.83 |
| B2 | 3.8 fold increase over isotype | 97.4 | 63.3 fold increase over isotype | 97 | 0.17 |
| B3 | 4.6 fold increase over isotype | 96.3 | 55.7 fold increase over isotype | 96.8 | 0.69 |
| B4 | 4 fold increase over isotype | 97 | 53.2 fold increase over isotype | 97.9 | 0.51 |
| B5 | 3.8 fold increase over isotype | 97.2 | 51.7 fold increase over isotype | 95.5 | 0.19 |
| B6 | 4.8 fold increase over isotype | 96.8 | 46.9 fold increase over isotype | 97.7 | 0.81 |
